Assay results taken from paper PMC11008599 (Frontiers in Immunology, 2024).

Tests used:
human IL-2 [1] = molecular target: T1, human IL-2 (human, UniProt P60568 21-153); test: SPR; multicycle kinetics, Biacore 8K+; knob domain constructs immobilised on a CM5 chip via amine coupling, IL-2 in solution; HBS-EP+; two-state binding model, only the fastest association and the slowest dissociation rate constants reported; settings: both partners purified
T1 construct: The source is told for the ELISA; nothing else is said for the SPR

human IL-2 [2] = molecular target: T1, human IL-2; test: SPR; […], Biacore 8K+; […]; HBS-EP+; […]; settings: both partners purified

T1 sequence (P60568 21-153): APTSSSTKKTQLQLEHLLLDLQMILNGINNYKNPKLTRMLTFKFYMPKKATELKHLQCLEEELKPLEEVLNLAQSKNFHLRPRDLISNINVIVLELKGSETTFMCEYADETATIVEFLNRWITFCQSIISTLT

B1: aIL2_1-BECN1 (other, bovine (knob domain))
chain: YQREYSEFKRQQLELDDELGSSCPESYRFHSDRWSRNCCIPDSWDDSYVWNCDHYAVRPAIGSLIQELEDVEKNRKIVAENL
notes: also called aIL2_1, BECN1 framework; not shown: His8, C-terminal, kept
Kd (human IL-2 [1]): 0.0108 µM

B2: aIL2_1-SNV-N (other)
chain: LKEVQDNIGSSCPESYRFHSDRWSRNCCIPDSWDDSYVWNCDHYAVRPAIGSLKRELADL
notes: also called aIL2_1, SNV-N framework; not shown: His8, C-terminal, kept
Kd (human IL-2 [2]): 0.0094 µM
